Experimental data taken from PMC3008546 (Structure (London, England : 1993), 2010).

Tests used:
[1] = biological target: the molecule itself; test: SEC-MALS
[2] = biological target: the molecule itself; test: SAXS

Protein | stoichiometry N [1] | stoichiometry N [2]
full-length XRCC4 (natural protein, human, UniProt Q13426 1-336, looked up) MERKISRIHLVSEPSITHFLQVSWEKTLESGFVITLTDGHSAWTGTVSESEISQEADDMAMEKGKYVGELRKALLSGAGPADVYTFNFSKESCYFFFEKNLKDVSFRLGSFNLEKVENPAEVIRELICYCLDTIAENQAKNEHLQKENERLLRDWNDVQGRFEKCVSAKEALETDLYKRFILVLNEKKTKIRSLHNKLLNAAQEREKDIKQEGETAICSEMTADRDPVYDESTDEESENQTDLSGLASAAVSKDDSIISSLDVTDIAPSRKRRQRMQRNLGTEPKMAPQENQLQEKENSRPDSSLPETSKKEHISAENMSLETLRNSSPEDLFDEI | 4 | –
XRCC4 1-161 (domain or fragment, human, UniProt Q13426 1-161, looked up) MERKISRIHLVSEPSITHFLQVSWEKTLESGFVITLTDGHSAWTGTVSESEISQEADDMAMEKGKYVGELRKALLSGAGPADVYTFNFSKESCYFFFEKNLKDVSFRLGSFNLEKVENPAEVIRELICYCLDTIAENQAKNEHLQKENERLLRDWNDVQGR | – | 2
XRCC4 1-140 (domain or fragment, human, UniProt Q13426 1-140, looked up) MERKISRIHLVSEPSITHFLQVSWEKTLESGFVITLTDGHSAWTGTVSESEISQEADDMAMEKGKYVGELRKALLSGAGPADVYTFNFSKESCYFFFEKNLKDVSFRLGSFNLEKVENPAEVIRELICYCLDTIAENQAK | – | 2
